In patent publication US20220056104A1 (Janssen / Centocor, published 2022):
Read-outs that look alike come from different tables or passages of the source.

T1: Recombinant DR3-Fc (R&D Systems, cat. #943-D3) (UniProt Q93038 25-199, limits assumed)
T1 construct: dimeric MW~92 kDa; also called DR3 receptor; Fc-DR3; not shown: Fc part of the bought fusion
T1 sequence (looked up): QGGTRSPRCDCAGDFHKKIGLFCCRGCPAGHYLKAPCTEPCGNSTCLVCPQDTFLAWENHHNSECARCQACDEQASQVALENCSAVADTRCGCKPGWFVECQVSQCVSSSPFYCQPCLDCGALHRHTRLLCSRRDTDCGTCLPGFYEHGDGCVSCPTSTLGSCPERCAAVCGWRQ

T2: DcR3 (UniProt O95407 30-300, limits assumed)
T2 construct: the construct is not described; also called decoy receptor DcR3; TNFRSF6B
T2 sequence (looked up): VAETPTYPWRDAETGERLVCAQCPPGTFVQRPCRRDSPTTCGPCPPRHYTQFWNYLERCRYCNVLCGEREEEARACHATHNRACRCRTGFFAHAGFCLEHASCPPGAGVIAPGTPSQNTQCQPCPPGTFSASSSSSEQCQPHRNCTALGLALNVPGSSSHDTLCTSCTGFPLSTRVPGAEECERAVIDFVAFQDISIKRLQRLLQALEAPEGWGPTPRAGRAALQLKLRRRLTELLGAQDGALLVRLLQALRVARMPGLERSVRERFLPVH


What was measured:
[1] = target: T1, Recombinant DR3-Fc (R&D Systems, cat. …); experiment: ELISA (FIG. 4C)
Protocol: (§1) All ELISA-based measurements were collected in triplicate, and error values report the standard error between measurements. Recombinant DR3-Fc (R&D Systems, cat. #943-D3), dimeric MW˜92 kDa, was non-specifically immobilized onto plates (Nunc maxisorp, cat. #436110) in 100 μL DR3-Fc, diluted to 10 μg/mL onto a 96-well White Maxisorp plate (Nunc, cat #436110) (O/N, 4° C.). Plates were block for 1 hour at room temperature with 250 μl/well of casein buffer and blocking buffer was removed. 50 μL of TL1A variants were diluted in StartingBlock PBS (Thermo Fisher Scientific), at 25 μg/mL, diluting 3× over each well, according to the plate map description for 20160623) per well on a 96-well White Maxisorp plate (Nunc, cat #: 436110) (overnight at 4° C.).
Plates were washed three times with TBST. 100 μl/well polyclonal rabbit anti-human TL1A-biotin antibody (diluted 1:1000 in Starting Block PBS) was added and plates were incubated for 1 hour at room temperature with shaking at 150 rpm. TL1A-biotin antibody was removed and 100 μl/well streptavidin-HRP conjugate (diluted 1:10,000 in Starting Block PBS) was added to plates. […] 100 μl/well POD Chemiluminescence substrate (Roche, cat #: 11582950001) was added immediately prior to reading plate luminescence using a Molecular Devices M5 plate reader with a delay setting of 100 ms.

[2] = target: T1, Recombinant DR3-Fc (R&D Systems, cat. …); experiment: ELISA, DR3-Fc immobilized
Protocol: as §1
(§2) Plates were washed three times with TBST. 100 μl/well polyclonal rabbit anti-human TL1A-biotin antibody (diluted 1:1000 in Starting Block PBS) was added and plates were incubated for 1 hour at room temperature with shaking at 150 rpm. TL1A-biotin antibody was removed and 100 μl/well streptavidin-HRP conjugate (diluted 1:10,000 in Starting Block PBS) was added to plates. Plates were incubated for 1 hour at room temperature with shaking at 150 rpm. Plates were washed three times with TBST. 100 μl/well POD Chemiluminescence substrate (Roche, cat #: 11582950001) was added immediately prior to reading plate luminescence using a Molecular Devices M5 plate reader with a delay setting of 100 ms.
These combination mutants were tested for binding to DR3 and DcR3 (FIGS. 5E and 5F, respectively).

DcR3 [3] = target: T2, DcR3; experiment: ELISA, DcR3
[4] = target: T1, Recombinant DR3-Fc (R&D Systems, cat. …); experiment: ELISA, DR3-Fc immobilized; remark: listed apart in the source
Protocol: as §1, §2
Variants of TL1A were generated and tested for binding to DR3 and DcR3 by ELISA as described.

DcR3 [5] = target: T2, DcR3; experiment: ELISA, DcR3; remark: listed apart in the source

Binder	binding result [1]	EC50 [2]	Rel EC50 [2]	EC50 (DcR3 [3])	EC50 [4]	Rel EC50 [4]	EC50 (DcR3 [5])	Rel EC50 (DcR3 [5])
TL1W34 (C162S, C202S) (ligand, also called TL1A-C162S, C202S; C162S, C202S TL1A variant) HHHHHHENLYFQGLKGQEFAPSHQQVYAPLRADGDKPRAHLTVVRQTPTQHFKNQFPALHWEHELGLAFTKNRMNYTNKFLLIPESGDYFIYSQVTFRGMTSESSEIRQAGRPNKPDSITVVITKVTDSYPEPTQLLMGTKSVSEVGSNWFQPIYLGAMFSLQEGDKLMVNVSDISLVDYTKEDKTFFGAFLL	no binding							
TL1W35 (C202S) (ligand) HHHHHHENLYFQGLKGQEFAPSHQQVYAPLRADGDKPRAHLTVVRQTPTQHFKNQFPALHWEHELGLAFTKNRMNYTNKFLLIPESGDYFIYSQVTFRGMTSECSEIRQAGRPNKPDSITVVITKVTDSYPEPTQLLMGTKSVSEVGSNWFQPIYLGAMFSLQEGDKLMVNVSDISLVDYTKEDKTFFGAFLL	no binding							
TL1W45 (His-TEV-TL1A E190F) (ligand, also called TL1W45 (E190F)) HHHHHHENLYFQGLKGQEFAPSHQQVYAPLRADGDKPRAHLTVVRQTPTQHFKNQFPALHWEHELGLAFTKNRMNYTNKFLLIPESGDYFIYSQVTFRGMTSECSEIRQAGRPNKPDSITVVITKVTDSYPFPTQLLMGTKSVCEVGSNWFQPIYLGAMFSLQEGDKLMVNVSDISLVDYTKEDKTFFGAFLL		31.4 nM	1.2 ratio	21.2 nM	31.4 nM	1.2 ratio (head: nM)		
TL1W136 (His-TEV-TL1A K240F) (ligand, also called TL1W136 (K240F)) HHHHHHENLYFQGLKGQEFAPSHQQVYAPLRADGDKPRAHLTVVRQTPTQHFKNQFPALHWEHELGLAFTKNRMNYTNKFLLIPESGDYFIYSQVTFRGMTSECSEIRQAGRPNKPDSITVVITKVTDSYPEPTQLLMGTKSVCEVGSNWFQPIYLGAMFSLQEGDKLMVNVSDISLVDYTFEDKTFFGAFLL					266 nM	10.1 ratio (head: nM)	178 nM	38.7 ratio (head: nM)
TL1W127 (His-TEV-TL1A Y238A) (ligand, also called TL1W127 (Y238A)) HHHHHHENLYFQGLKGQEFAPSHQQVYAPLRADGDKPRAHLTVVRQTPTQHFKNQFPALHWEHELGLAFTKNRMNYTNKFLLIPESGDYFIYSQVTFRGMTSECSEIRQAGRPNKPDSITVVITKVTDSYPEPTQLLMGTKSVCEVGSNWFQPIYLGAMFSLQEGDKLMVNVSDISLVDATKEDKTFFGAFLL					4620 nM	176 ratio (head: nM)	8.9 nM	1.9 ratio (head: nM)
TL1W137 (His-TEV-TL1A K240S) (ligand, also called TL1W137 (K240S)) HHHHHHENLYFQGLKGQEFAPSHQQVYAPLRADGDKPRAHLTVVRQTPTQHFKNQFPALHWEHELGLAFTKNRMNYTNKFLLIPESGDYFIYSQVTFRGMTSECSEIRQAGRPNKPDSITVVITKVTDSYPEPTQLLMGTKSVCEVGSNWFQPIYLGAMFSLQEGDKLMVNVSDISLVDYTSEDKTFFGAFLL					336 nM	12.8 ratio (head: nM)	11.8 nM	2.6 ratio (head: nM)
TL1W129 (His-TEV-TL1A Y238K) (ligand, also called TL1W129 (Y238K)) HHHHHHENLYFQGLKGQEFAPSHQQVYAPLRADGDKPRAHLTVVRQTPTQHFKNQFPALHWEHELGLAFTKNRMNYTNKFLLIPESGDYFIYSQVTFRGMTSECSEIRQAGRPNKPDSITVVITKVTDSYPEPTQLLMGTKSVCEVGSNWFQPIYLGAMFSLQEGDKLMVNVSDISLVDKTKEDKTFFGAFLL					446 nM	17 ratio (head: nM)	9 nM	2 ratio (head: nM)
TL1W132 (His-TEV-TL1A T239A) (ligand, also called TL1W132 (T239A)) HHHHHHENLYFQGLKGQEFAPSHQQVYAPLRADGDKPRAHLTVVRQTPTQHFKNQFPALHWEHELGLAFTKNRMNYTNKFLLIPESGDYFIYSQVTFRGMTSECSEIRQAGRPNKPDSITVVITKVTDSYPEPTQLLMGTKSVCEVGSNWFQPIYLGAMFSLQEGDKLMVNVSDISLVDYAKEDKTFFGAFLL					144 nM	5.5 ratio (head: nM)	27.2 nM	5.9 ratio (head: nM)
TL1W131 (His-TEV-TL1A Y238E) (ligand, also called TL1W131 (Y238E)) HHHHHHENLYFQGLKGQEFAPSHQQVYAPLRADGDKPRAHLTVVRQTPTQHFKNQFPALHWEHELGLAFTKNRMNYTNKFLLIPESGDYFIYSQVTFRGMTSECSEIRQAGRPNKPDSITVVITKVTDSYPEPTQLLMGTKSVCEVGSNWFQPIYLGAMFSLQEGDKLMVNVSDISLVDETKEDKTFFGAFLL					300 nM	11.5 ratio (head: nM)	6.6 nM	1.4 ratio (head: nM)

The next lines start with the values.

binding result [1]	EC50 [2]	Rel EC50 [2]	EC50 (DcR3 [3])	EC50 [4]	Rel EC50 [4]	EC50 (DcR3 [5])	Rel EC50 (DcR3 [5])	Binder
	29.4 nM	1.1 ratio	24.7 nM	29.5 nM	1.1 ratio (head: nM)	24.7 nM	5.4 ratio (head: nM)	TL1W38 (His-TEV-TL1A L123K) (ligand, also called TL1W38 (L123K)) HHHHHHENLYFQGLKGQEFAPSHQQVYAPLRADGDKPRAHLTVVRQTPTQHFKNQFPALHWEHEKGLAFTKNRMNYTNKFLLIPESGDYFIYSQVTFRGMTSECSEIRQAGRPNKPDSITVVITKVTDSYPEPTQLLMGTKSVCEVGSNWFQPIYLGAMFSLQEGDKLMVNVSDISLVDYTKEDKTFFGAFLL
	30 nM	1.1 ratio	89.8 nM	30 nM	1.1 ratio (head: nM)	16.3 nM	3.5 ratio (head: nM)	TL1W80 (His-TEV-TL1A K111A) (ligand, also called TL1W80 (K111A)) HHHHHHENLYFQGLKGQEFAPSHQQVYAPLRADGDKPRAHLTVVRQTPTQHFANQFPALHWEHELGLAFTKNRMNYTNKFLLIPESGDYFIYSQVTFRGMTSECSEIRQAGRPNKPDSITVVITKVTDSYPEPTQLLMGTKSVCEVGSNWFQPIYLGAMFSLQEGDKLMVNVSDISLVDYTKEDKTFFGAFLL
	17.1 nM	0.7 ratio	176 nM	17.1 nM	0.7 ratio (head: nM)	32 nM	7 ratio (head: nM)	TL1W95 (His-TEV-TL1A Q167A) (ligand, also called TL1W95 (Q167A)) HHHHHHENLYFQGLKGQEFAPSHQQVYAPLRADGDKPRAHLTVVRQTPTQHFKNQFPALHWEHELGLAFTKNRMNYTNKFLLIPESGDYFIYSQVTFRGMTSECSEIRAAGRPNKPDSITVVITKVTDSYPEPTQLLMGTKSVCEVGSNWFQPIYLGAMFSLQEGDKLMVNVSDISLVDYTKEDKTFFGAFLL
	16.6 nM	0.6 ratio	69.2 nM	16.6 nM	0.6 ratio (head: nM)	12.6 nM	2.7 ratio (head: nM)	TL1W92 (His-TEV-TL1A M158Y) (ligand, also called TL1W92 (M158Y)) HHHHHHENLYFQGLKGQEFAPSHQQVYAPLRADGDKPRAHLTVVRQTPTQHFKNQFPALHWEHELGLAFTKNRMNYTNKFLLIPESGDYFIYSQVTFRGYTSECSEIRQAGRPNKPDSITVVITKVTDSYPEPTQLLMGTKSVCEVGSNWFQPIYLGAMFSLQEGDKLMVNVSDISLVDYTKEDKTFFGAFLL
	30.2 nM	1.2 ratio	58.5 nM	30.2 nM	1.2 ratio (head: nM)	10.6 nM	2.3 ratio (head: nM)	TL1W122 (His-TEV-TL1A N207F) (ligand, also called TL1W122 (N207F)) HHHHHHENLYFQGLKGQEFAPSHQQVYAPLRADGDKPRAHLTVVRQTPTQHFKNQFPALHWEHELGLAFTKNRMNYTNKFLLIPESGDYFIYSQVTFRGMTSECSEIRQAGRPNKPDSITVVITKVTDSYPEPTQLLMGTKSVCEVGSFWFQPIYLGAMFSLQEGDKLMVNVSDISLVDYTKEDKTFFGAFLL
	17.7 nM	0.7 ratio	85.5 nM	17.7 nM	0.7 ratio (head: nM)	15.5 nM	3.4 ratio (head: nM)	TL1W109 (His-TEV-TL1A S187L) (ligand, also called TL1W109 (S187L)) HHHHHHENLYFQGLKGQEFAPSHQQVYAPLRADGDKPRAHLTVVRQTPTQHFKNQFPALHWEHELGLAFTKNRMNYTNKFLLIPESGDYFIYSQVTFRGMTSECSEIRQAGRPNKPDSITVVITKVTDLYPEPTQLLMGTKSVCEVGSNWFQPIYLGAMFSLQEGDKLMVNVSDISLVDYTKEDKTFFGAFLL
